Source: US20140099324A1 (University of Texas, published 2014)

What was measured:
[1] = target: HERV-K recombinant fusion protein K10Q18 (K-SU in pQE30, N-terminal 6-His) (human endogenous retrovirus K); test: flow cytometry on dendritic cells pulsed with the protein
[2] = target: T1, HERV-K env protein expressed endogenously by human cancer cell lines (human endogenous retrovirus K); test: cell-based or functional assay
T1 chain: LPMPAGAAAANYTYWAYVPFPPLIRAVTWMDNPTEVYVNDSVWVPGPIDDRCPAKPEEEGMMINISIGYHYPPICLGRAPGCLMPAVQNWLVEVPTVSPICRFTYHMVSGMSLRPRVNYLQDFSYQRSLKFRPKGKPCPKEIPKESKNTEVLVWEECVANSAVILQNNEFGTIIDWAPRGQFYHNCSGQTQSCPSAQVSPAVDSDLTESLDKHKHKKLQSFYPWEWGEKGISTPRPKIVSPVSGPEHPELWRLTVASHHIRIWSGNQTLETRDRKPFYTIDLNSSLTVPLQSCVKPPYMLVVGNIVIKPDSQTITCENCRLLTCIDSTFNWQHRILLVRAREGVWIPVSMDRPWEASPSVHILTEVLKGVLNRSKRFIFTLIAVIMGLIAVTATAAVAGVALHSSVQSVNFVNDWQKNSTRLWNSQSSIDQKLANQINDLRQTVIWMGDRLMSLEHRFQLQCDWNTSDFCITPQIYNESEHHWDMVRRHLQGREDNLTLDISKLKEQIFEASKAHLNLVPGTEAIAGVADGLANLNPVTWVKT

anti-RGS monoclonal antibody (Qiagen)
percent of DCs positive [1]: > 70%

B1: anti-HERV-K env monoclonal antibody 6H5 (antibody, V domains shown)
VH: MAQVKLQQSGPDLVKPGASVKISCKASGYSFTGYYMHWVKQSHGKSLEWIGRVNPNSGGTSYNQKFKDKAILTVDKSSSTAYMELRSLTSEDSAVYYCARSKGNYFYAMDY
VL: ASLAVSLGQRATISCRASESVDSHGTSFMHWYQQKPGQPPKFLIYRASNLESGIPARFSGSGSRTDFTLTINPVETDDVAIYYCQQSNEDPPTFGGGTKLEIK
IC50, cytotoxicity toward MCF-7 breast cancer cells (72 h, crystal violet) [2]: 51.7 nM | IC50, cytotoxicity toward MDA-MB-231 breast cancer cells (72 h, crystal violet) [2]: 6.6 nM
